Data: paper doi:10.1101/2022.08.09.503299

Biological target: other proteasome components
Experiment: SEC

PSMA4-BirA*-FLAG (from UniProt P25789 2-261) (natural protein)
share of the BirA* signal that co-elutes with proteasome components: 60%
